{"source": "patent US10676749", "assay_in_all_cases": "cell_activity", "key": {"[1]": {"tested_on": "TALE-VP64 VEGF3-1 (synthetic)", "details": "VEGF-A ELISA, 293 cells"}, "[2]": {"tested_on": "TALE-VP64 VEGF3-2 (synthetic)", "details": "VEGF-A ELISA, 293 cells"}, "[3]": {"tested_on": "TALE-VP64 VEGF3-3 (synthetic)", "details": "VEGF-A ELISA, 293 cells"}, "[4]": {"tested_on": "TALE-VP64 VEGF3-4 (synthetic)", "details": "VEGF-A ELISA, 293 cells"}, "[5]": {"tested_on": "TALE-VP64 VEGF3-5 (synthetic)", "details": "VEGF-A ELISA, 293 cells"}, "[6]": {"tested_on": "TALE-VP64 VEGF3-6 (synthetic)", "details": "VEGF-A ELISA, 293 cells"}, "[7]": {"tested_on": "TALE-VP64 Ntf3-4 (synthetic)", "details": "NTF3 qRT-PCR, 293 cells"}, "[8]": {"tested_on": "TALE-VP64 VEGF9-1 (synthetic)", "details": "VEGF-A ELISA, 293 cells"}, "[9]": {"tested_on": "TALE-VP64 VEGF9-2 (synthetic)", "details": "VEGF-A ELISA, 293 cells"}, "[10]": {"tested_on": "TALE-VP64 VEGF9-3 (synthetic)", "details": "VEGF-A ELISA, 293 cells"}, "[11]": {"tested_on": "TALE-VP64 VEGF9-4 (synthetic)", "details": "VEGF-A ELISA, 293 cells"}, "[12]": {"tested_on": "TALE-VP64 VEGF9-5 (synthetic)", "details": "VEGF-A ELISA, 293 cells"}, "[13]": {"tested_on": "TALE-VP64 VEGF9-6 (synthetic)", "details": "VEGF-A ELISA, 293 cells"}, "[14]": {"tested_on": "TALE-VP64 VEGF8-1 (synthetic)", "details": "VEGF-A ELISA, 293 cells"}, "[15]": {"tested_on": "TALE-VP64 VEGF8-2 (synthetic)", "details": "VEGF-A ELISA, 293 cells"}, "[16]": {"tested_on": "TALE-VP64 VEGF8-3 (synthetic)", "details": "VEGF-A ELISA, 293 cells"}, "[17]": {"tested_on": "TALE-VP64 VEGF8-4 (synthetic)", "details": "VEGF-A ELISA, 293 cells"}, "[18]": {"tested_on": "TALE-VP64 VEGF8-5 (synthetic)", "details": "VEGF-A ELISA, 293 cells"}, "[19]": {"tested_on": "TALE-VP64 VEGF8-6 (synthetic)", "details": "VEGF-A ELISA, 293 cells"}, "[20]": {"tested_on": "TALE-VP64 VEGF6-1 (synthetic)", "details": "VEGF-A ELISA, 293 cells"}, "[21]": {"tested_on": "TALE-VP64 VEGF6-2 (synthetic)", "details": "VEGF-A ELISA, 293 cells"}, "[22]": {"tested_on": "TALE-VP64 VEGF6-3 (synthetic)", "details": "VEGF-A ELISA, 293 cells"}, "[23]": {"tested_on": "TALE-VP64 VEGF6-4 (synthetic)", "details": "VEGF-A ELISA, 293 cells"}, "[24]": {"tested_on": "TALE-VP64 VEGF6-5 (synthetic)", "details": "VEGF-A ELISA, 293 cells"}, "[25]": {"tested_on": "TALE-VP64 VEGF6-6 (synthetic)", "details": "VEGF-A ELISA, 293 cells"}, "[26]": {"tested_on": "TALE-VP64 VEGF4-1 (synthetic)", "details": "VEGF-A ELISA, 293 cells"}, "[27]": {"tested_on": "TALE-VP64 VEGF4-2 (synthetic)", "details": "VEGF-A ELISA, 293 cells"}, "[28]": {"tested_on": "TALE-VP64 VEGF4-3 (synthetic)", "details": "VEGF-A ELISA, 293 cells"}, "[29]": {"tested_on": "TALE-VP64 VEGF4-4 (synthetic)", "details": "VEGF-A ELISA, 293 cells"}}}
{"sequence": "TACCACCTCCTCCCCG (double strand) [VEGF3-1 site]", "values": [{"measurement": "activity (fold activation)", "setting": "[1]", "result": "> 5.3"}]}
{"sequence": "TACCACCTCCTCCCCGGC (double strand) [VEGF3-2 site]", "values": [{"measurement": "activity (fold activation)", "setting": "[2]", "result": "> 5.3"}]}
{"sequence": "TACCACCTCCTCCCCGGCCG (double strand) [VEGF3-3 site]", "values": [{"measurement": "activity (fold activation)", "setting": "[3]", "result": "> 5.3"}]}
{"sequence": "TACCACCTCCTCCCCGGCCGGC (double strand) [VEGF3-4 site]", "values": [{"measurement": "activity (fold activation)", "setting": "[4]", "result": "> 5.3"}]}
{"sequence": "TACCACCTCCTCCCCGGCCGGCGG (double strand) [VEGF3-5 site]", "values": [{"measurement": "activity (fold activation)", "setting": "[5]", "result": "> 5.3"}]}
{"sequence": "TACCACCTCCTCCCCGGCCGGCGGCG (double strand) [VEGF3-6 site]", "values": [{"measurement": "activity (fold activation)", "setting": "[6]", "result": "> 5.3"}]}
{"sequence": "TACGCCTCAGACCTGATC (double strand) [Ntf3-4 site]", "values": [{"measurement": "activity (fold activation (approx))", "setting": "[7]", "result": "> 1000"}]}
{"sequence": "TCCACCCCGCCTCCGG (double strand) [VEGF9-1 site]", "values": [{"measurement": "activity (fold activation)", "setting": "[8]", "result": "> 5.3"}]}
{"sequence": "TCCACCCCGCCTCCGGGC (double strand) [VEGF9-2 site]", "values": [{"measurement": "activity (fold activation)", "setting": "[9]", "result": "> 5.3"}]}
{"sequence": "TCCACCCCGCCTCCGGGCGC (double strand) [VEGF9-3 site]", "values": [{"measurement": "activity (fold activation)", "setting": "[10]", "result": "> 5.3"}]}
{"sequence": "TCCACCCCGCCTCCGGGCGCGG (double strand) [VEGF9-4 site]", "values": [{"measurement": "activity (fold activation)", "setting": "[11]", "result": "> 5.3"}]}
{"sequence": "TCCACCCCGCCTCCGGGCGCGGGC (double strand) [VEGF9-5 site]", "values": [{"measurement": "activity (fold activation)", "setting": "[12]", "result": "> 5.3"}]}
{"sequence": "TCCACCCCGCCTCCGGGCGCGGGCTC (double strand) [VEGF9-6 site]", "values": [{"measurement": "activity (fold activation)", "setting": "[13]", "result": "> 5.3"}]}
{"sequence": "TCCACTGTCCGCCGCC (double strand) [VEGF8-1 site]", "values": [{"measurement": "activity (fold activation)", "setting": "[14]", "result": "> 5.3"}]}
{"sequence": "TCCACTGTCCGCCGCCGG (double strand) [VEGF8-2 site]", "values": [{"measurement": "activity (fold activation)", "setting": "[15]", "result": "> 5.3"}]}
{"sequence": "TCCACTGTCCGCCGCCGGCC (double strand) [VEGF8-3 site]", "values": [{"measurement": "activity (fold activation)", "setting": "[16]", "result": "> 5.3"}]}
{"sequence": "TCCACTGTCCGCCGCCGGCCGG (double strand) [VEGF8-4 site]", "values": [{"measurement": "activity (fold activation)", "setting": "[17]", "result": "> 5.3"}]}
{"sequence": "TCCACTGTCCGCCGCCGGCCGGGG (double strand) [VEGF8-5 site]", "values": [{"measurement": "activity (fold activation)", "setting": "[18]", "result": "> 5.3"}]}
{"sequence": "TCCACTGTCCGCCGCCGGCCGGGGAG (double strand) [VEGF8-6 site]", "values": [{"measurement": "activity (fold activation)", "setting": "[19]", "result": "> 5.3"}]}
{"sequence": "TCCCAAGGGGGAGGGC (double strand) [VEGF6-1 site]", "values": [{"measurement": "activity (fold activation)", "setting": "[20]", "result": "> 5.3"}]}
{"sequence": "TCCCAAGGGGGAGGGCTC (double strand) [VEGF6-2 site]", "values": [{"measurement": "activity (fold activation)", "setting": "[21]", "result": "> 5.3"}]}
{"sequence": "TCCCAAGGGGGAGGGCTCAC (double strand) [VEGF6-3 site]", "values": [{"measurement": "activity (fold activation)", "setting": "[22]", "result": "> 5.3"}]}
{"sequence": "TCCCAAGGGGGAGGGCTCACGC (double strand) [VEGF6-4 site]", "values": [{"measurement": "activity (fold activation)", "setting": "[23]", "result": "> 5.3"}]}
{"sequence": "TCCCAAGGGGGAGGGCTCACGCCG (double strand) [VEGF6-5 site]", "values": [{"measurement": "activity (fold activation)", "setting": "[24]", "result": "> 5.3"}]}
{"sequence": "TCCCAAGGGGGAGGGCTCACGCCGCG (double strand) [VEGF6-6 site]", "values": [{"measurement": "activity (fold activation)", "setting": "[25]", "result": "> 5.3"}]}
{"sequence": "TCCCCGGCCGGCGGCG (double strand) [VEGF4-1 site]", "values": [{"measurement": "activity (fold activation)", "setting": "[26]", "result": "> 5.3"}]}
{"sequence": "TCCCCGGCCGGCGGCGGA (double strand) [VEGF4-2 site]", "values": [{"measurement": "activity (fold activation)", "setting": "[27]", "result": "> 5.3"}]}
{"sequence": "TCCCCGGCCGGCGGCGGACA (double strand) [VEGF4-3 site]", "values": [{"measurement": "activity (fold activation)", "setting": "[28]", "result": "> 5.3"}]}
{"sequence": "TCCCCGGCCGGCGGCGGACAGT (double strand) [VEGF4-4 site]", "values": [{"measurement": "activity (fold activation)", "setting": "[29]", "result": "> 5.3"}]}
